Experimental data taken from PMC7913698, “RPA complexes in Caenorhabditis elegans meiosis; unique roles in replication, meiotic recombination and apoptosis” (Nucleic Acids Research, 2021).
Blank lines part the entries; values can stand above or below the molecule they belong to.

Legend:
Experiment in all cases: single-molecule pull-down (SiMPull, TIRF microscopy); whole worm lysate of the triple-tagged strain; biotinylated antibody against the tag of one subunit (anti-OLLAS, anti-FLAG or anti-MYC) tethered to the neutravidin surface captures complexes; Cy3- and Cy5-labelled antibodies against the tags detect the subunits; track counts after wash, summed over fields of view; controls: Pre-Ab and untagged wild-type lysate
[1] = target: 3XFLAG::RPA-2 (C. elegans) (UniProt Q95Y97)
[2] = target: OLLAS::RPA-1 (C. elegans) (UniProt Q19537)
[3] = target: MYC::RPA-4 (C. elegans)
[4] = target: the molecule itself

pulldown counts [1]: 206 counts
pulldown counts [2]: 1810 counts
pulldown counts [3]: 2300 counts
Molecule: MYC::RPA-4 (natural protein)

pulldown counts [3]: 100 counts
B1: OLLAS::RPA-1 (natural protein, C. elegans, UniProt Q19537 1-655, looked up)
chain: MAAIHINHDVFNKYHTNGKLRLTTGYVQEAIENNGYPGHDGIVQVLKGKVEQGEQLGHAFTFRIRISDGVFQYNALMSADIDDQIKREVEHLVEGTIIALTKFEIYDQGEGAKNCFLIKGYKILSRYHQVLTSPEVKPRSHSGKPDEHKGYRPNIIIEDVWPEAEGMAADYQENMANPPAAKAPKREFGEEASYNRAAAPEATRARAVPPPARRTASNTERGVMPIAMVTPYVSNFKIHGMVSRKEEIRTFPAKNTKVFNFEITDSNGDTIRCTAFNEVAESLYTTITENLSYYLSGGSVKQANKKFNNTGHDYEITLRSDSIIEAGGELLAAPKLILKRVKLGEIAGYAGQLIDVLVVVEKMDPEATEFTSKAGKSLIKREMELIDESGALVRLTLWGDEATKALVDDYVQKVIAFKGVIPREFNGGFSLGTGSATRIISVPEIAGVSELYDWYANVKPTTEVKMMSQAAGGSNEAPRTIAGLQEMQFGKDSDKGDYATVKAMITRVNPTNALYRGCASEGCQKKLVGENGDYRCEKCNKNMNKFKWLYMMQFELSDETGQVYVTAFGDSAAKIVGKSAAELGELHDESPDEYNAIFERLQFVPKMWRLRCKMDSYNEEVRQKMTVYGVDDVNQDKYIENLKQMIEQMQQMSDY
notes: also called OLLAS-tagged RPA-1; CeRPA large subunit; source: endogenous locus tagged by CRISPR/Cas9, C. elegans whole worm lysate; not shown: OLLAS, N-terminal, kept
pulldown counts [4]: 1060 counts

B2: 3XFLAG::RPA-2 (natural protein, C. elegans, UniProt Q95Y97 1-288, looked up)
chain: MWNETVEHENAGNGWAAGESSFMTDRKPDSKATTLGERLPVPVTISNLIEHFSAQDDKYVVGTFRFATVLTVGIVKDISQDGTTYTYDLCDPNNTEMEYRTLKYDNEGSTFDHSSIVEGTRVRAIGKLKGFDGNNTIMLFNITPVEDDKDFTIFELEAEAARLFFQKNVSEKLKSVDSDGFQGMLAPPKSRMSQTSHQSSQGSDTKERLYAQPQKVMTGANQGDVLRERITAVLMAVPEGSRDEGRHVSWIAEQIQETNISIVRKCVGEMVENGLVYTTVDEETVSAI
notes: also called 3XFLAG-tagged RPA-2; source: endogenous locus tagged by CRISPR/Cas9, C. elegans whole worm lysate; not shown: 3xFLAG, N-terminal, kept
pulldown counts [4]: 724 counts
